Measured values: patent US20240117334
Changes are numbered by the printed parent chain. In names and notes the source's numbering stands.

B1: chymase C22S/K40L/F41K/L99N/F173Y/D175N/S218L/A226R (protein)
chain: IIGGTESKPHSRPYMAYLEIVTSNGPSLKCGGFLIRRNFVLTAAHCAGRSITVTLGAHNITEEEDTWQKLEVIKQFRHPKYNTSTNHHDIMLLKLKEKASLTLAVGTLPFPSQFNFVPPGRMCRVAGWGRTGVLKPGSDTLQEVKLRLMDPQACSHYRNFDHNLQLCVGNPRKTKSAFKGDSGGPLLCAGVAQGIVSYGRLDAKPPRVFTRISHYRPWINQILQAN
B2: chymase C22S/P38Q/K40M/F41R/L99M/F173Y/D175N/V213Q/S218V/A226R/F228A (protein)
chain: B1 chain with P26Q, L28M, K29R, N86M, V196Q, L201V, F209A
B3: chymase C22S/P38Q/K40L/F41R/V138I/F173Y/D175N/A190S/V213A/S218V/A226R (protein)
chain: B1 chain with P26Q, K29R, N86L, V125I, A177S, V196A, L201V
B4: chymase C22S/P38Q/K40M/F41R/D175N/V213Q/S218V/A226R/F228A (protein)
chain: B1 chain with P26Q, L28M, K29R, N86L, Y157F, V196Q, L201V, F209A
B5: chymase C22S/P38Q/K40L/F41R/L99H/V138I/F173Y/D175S/A190S/V213A/S218I/A226R (protein)
chain: B1 chain with P26Q, K29R, N86H, V125I, N159S, A177S, V196A, L201I
B6: chymase C22S/P38Q/K40M/F41R/V138I/F173Y/D175R/A190S/V213A/S218V/A226R (protein)
chain: B1 chain with P26Q, L28M, K29R, N86L, V125I, N159R, A177S, V196A, L201V
B7: MTSP-1 F97E/K224N/F99L/D217I/C122S/C[17]S/C[19]S (protein)
chain: VVGGTDADEGEWPWQVSLHALGQGHICGASLISPNWLVSAAHCYIDDRGFRYSDPTQWTAFLGLHDQSQRSAPGVQERRLKRIISHPFFNDETLDYDIALLELEKPAEYSSMVRPISLPDASHVFPAGKAIWVTGWGHTQYGGTGALILQKGEIRVINQTTCENLLPQQITPRMMCVGFLSGGVDSCQGDSGGPLSSVEADGRIFQAGVVSWGIGCAQRNNPGVYTRLPLFRDWIKENTGV

Biological target: Human Factor B
Sequence (chain, as listed by the source): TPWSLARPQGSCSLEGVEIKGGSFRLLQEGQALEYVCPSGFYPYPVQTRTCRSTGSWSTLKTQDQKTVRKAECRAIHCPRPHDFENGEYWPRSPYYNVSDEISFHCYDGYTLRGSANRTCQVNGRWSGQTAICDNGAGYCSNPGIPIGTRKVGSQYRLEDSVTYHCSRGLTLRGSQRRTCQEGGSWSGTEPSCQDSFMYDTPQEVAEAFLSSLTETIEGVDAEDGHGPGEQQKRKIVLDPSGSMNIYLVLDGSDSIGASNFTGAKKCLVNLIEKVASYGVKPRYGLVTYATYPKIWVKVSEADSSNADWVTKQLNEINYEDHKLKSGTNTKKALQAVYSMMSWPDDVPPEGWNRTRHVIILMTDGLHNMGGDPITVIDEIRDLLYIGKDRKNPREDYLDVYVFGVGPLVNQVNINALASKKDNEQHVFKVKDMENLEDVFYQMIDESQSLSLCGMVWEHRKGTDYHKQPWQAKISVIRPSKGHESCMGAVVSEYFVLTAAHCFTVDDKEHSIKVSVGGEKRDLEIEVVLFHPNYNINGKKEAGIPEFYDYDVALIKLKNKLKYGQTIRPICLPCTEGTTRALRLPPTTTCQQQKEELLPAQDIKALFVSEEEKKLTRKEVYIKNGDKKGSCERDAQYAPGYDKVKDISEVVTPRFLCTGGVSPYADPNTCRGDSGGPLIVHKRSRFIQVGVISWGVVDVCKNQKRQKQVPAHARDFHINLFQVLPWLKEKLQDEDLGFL

| Protein | Factor B cleavage, Coomassie gel | other results |
| --- | --- | --- |
| B1 | each lot showed the ability of the engineered proteases to cleave Factor B |  |
| B2 | each lot showed the ability of the engineered proteases to cleave Factor B |  |
| B3 |  | Factor B cleavage: show high Factor B cleavage activity |
| B4 | each lot showed the ability of the engineered proteases to cleave Factor B |  |
| B5 | each lot showed the ability of the engineered proteases to cleave Factor B |  |
| B6 |  | Factor B cleavage: show high Factor B cleavage activity |
| B7 |  | Factor B add-back hemolysis: is able to inhibit hemolysis |
